Data as given in publication PMC3234919 (The Journal of Biological Chemistry, 2011).
Where a chain is given by its changes, count along the chain named. In names and notes the source's numbering stands.

B1: PrxIII (enzyme, UniProt P30048 62-256, looked up)
chain: APAVTQHAPYFKGTAVVNGEFKDLSLDDFKGKYLVLFFYPLDFTFVCPTEIVAFSDKANEFHDVNCEVVAVSVDSHFSHLAWINTPRKNGGLGHMNIALLSDLTKQISRDYGVLLEGSGLALRGLFIIDPNGVIKHLSVNDLPVGRSVEETLRLVKAFQYVETHGEVCPANWTPDSPTIKPSPAASKEYFQKVNQ
B2: human peroxiredoxin IV C51A mutant (residues 37-271 of the preprotein) (enzyme, UniProt Q13162 37-271, looked up)
chain: GWETEERPRTREEEAHFYAGGQVYPGEASRVSVADHSLHLSKAKISKPAPYWEGTAVIDGEFKELKLTDYRGKYLVFFFYPLDFTFVCPTEIIAFGDRLEEFRSINTEVVACSVDSQFTHLAWINTPRRQGGLGPIRIPLLSDLTHQISKDYGVYLEDSGHTLRGLFIIDDKGILRQITLNDLPVGRSVDETLRLVQAFQYTDKHGEVCPAGWKPGSETIIPDPAGKLKYFDKLN
B3: human peroxiredoxin IV C245A resolving cysteine mutant, reduced (enzyme, UniProt Q13162 37-271, looked up)
chain: B2 chain with A15C, C209A
B4: human peroxiredoxin IV, wild type, full-length mature protein (residues 37-271 of the preprotein) (enzyme, UniProt Q13162 37-271, looked up)
chain: B2 chain with A15C
B5: human peroxiredoxin IV C245A resolving cysteine mutant, sulfenylated at the peroxidatic cysteine (enzyme, UniProt Q13162 37-271, looked up)
chain: B2 chain with A15C, C209A
modifications: cysteine sulfenic acid at Cys-124 (peroxidatic cysteine)

Tests used:
SEC = target: the molecule itself; assay: SEC
crystal structure [1] = target: the molecule itself; assay: crystal structure
crystal structure [2] = target: the molecule itself; assay: crystal structure; remark: listed apart in the source

| Protein | stoichiometry N (SEC) | stoichiometry N (crystal structure [1]) | other results |
| --- | --- | --- | --- |
| B1 | 2 |  |  |
| B2 |  | 10 |  |
| B3 |  | 10 |  |
| B4 | 10 |  |  |
| B5 |  |  | stoichiometry N (crystal structure [2]): 10 |
